According to PMC11713712, “PFTAIRE peptide degrading cyclin Y and ameliorating cognitive deficits in mouse models of Alzheimer’s Disease” (Alzheimer's & Dementia, 2025):

Legend:
[1] = target: T1, CCNY protein (Homo sapiens, UniProt Q8ND76); assay: Binding of PFTAIRE peptide to CCNY protein in in vitro studies
Text: (§1) Utilizing solid‐phase peptide synthesis, PFTAIRE peptide was produced.

[2] = test system: AD mouse models; assay: Behavior tests in AD mouse models after intravenous injection; type: in vivo; settings: intravenously injected
Text: as §1

[3] = Text: Abstract Background Cyclin Y (CCNY) is a member of cyclin protein family inhibiting long‐term synaptic plasticity, which is related to the learning and memory function in neuronal system. Recently, CCNY has been reported to associate with the cognitive deficits in Alzheimer’s disease (AD). […] This peptide is derived from the domain of cyclin‐dependent kinase 14, a kinase degrading CCNY protein, and this domain is essential for the binding to CCNY. Utilizing solid‐phase peptide synthesis, PFTAIRE peptide was produced. […] We intravenously injected PFTAIRE peptide to AD mouse models and performed behavior tests.
[4] = target: T1, CCNY protein; assay: CCNY protein level
Text: as §1

T1 sequence (Q8ND76 whole entry, species assumed): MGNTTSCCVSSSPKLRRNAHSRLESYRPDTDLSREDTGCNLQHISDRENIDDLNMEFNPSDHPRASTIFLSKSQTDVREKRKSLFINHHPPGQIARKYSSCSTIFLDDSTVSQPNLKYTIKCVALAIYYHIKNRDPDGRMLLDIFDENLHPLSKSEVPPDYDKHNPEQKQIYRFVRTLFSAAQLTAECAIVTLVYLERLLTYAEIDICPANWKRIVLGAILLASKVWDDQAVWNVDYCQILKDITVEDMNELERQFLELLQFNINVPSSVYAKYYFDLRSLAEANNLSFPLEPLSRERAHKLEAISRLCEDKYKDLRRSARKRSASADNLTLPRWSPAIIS

Substance: PFTAIRE peptide: Peptide derived from the domain of cyclin‐dependent kinase 14 essential for binding to CCNY; produced by solid‐phase peptide synthesis
- binding to CCNY protein [1]: binds to CCNY protein
- memory impairments in behavior tests [2]: prevents memory impairments
- plasma stability [3]: confirmed the plasma and liver microsomal stability
- liver microsomal stability ([3]; liver microsomes): confirmed the plasma and liver microsomal stability
- CCNY protein level [4]: diminish CCNY protein level
